According to article PMC5718613:

Molecular target: S. aureus flotillin (FloA), fused to T25 or T18 fragments of an adenylate cyclase (S. aureus)
Test: two-hybrid; bacterial two-hybrid in E. coli BTH101; FloA and T7SS membrane proteins fused C- and N-terminally with T18 and T25 fragments of adenylate cyclase; X-Gal plates (48 h, 30°C) and β-galactosidase activity in Miller Units; a 700 Miller Unit threshold defines positive and negative signals

Sequence of S. aureus flotillin (FloA), fused to T25 or T18 fragments of an adenylate cyclase (S. aureus) (A6QHB6 whole entry, the tested form may be a part): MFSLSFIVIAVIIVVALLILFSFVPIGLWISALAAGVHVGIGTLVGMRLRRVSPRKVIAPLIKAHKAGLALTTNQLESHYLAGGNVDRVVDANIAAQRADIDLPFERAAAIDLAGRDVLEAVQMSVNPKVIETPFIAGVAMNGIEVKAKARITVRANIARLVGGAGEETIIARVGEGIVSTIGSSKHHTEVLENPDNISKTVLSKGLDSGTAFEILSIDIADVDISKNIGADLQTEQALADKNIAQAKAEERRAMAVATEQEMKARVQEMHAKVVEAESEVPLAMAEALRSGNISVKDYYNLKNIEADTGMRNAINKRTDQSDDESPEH

Q: “EssB, fused to T25 or T18 fragments of an adenylate cyclase (from UniProt Q2G185 1-444) (natural protein)” was tested. Which β-galactosidase activity (two-hybrid signal) did it give?
A: > 2000 Miller Units
